In paper PMC3696110, “Hsp70 Oligomerization Is Mediated by an Interaction between the Interdomain Linker and the Substrate-Binding Domain” (PLoS ONE, 2013):
“And” between values parts separate entries of the source, which are not always exact repeats. Equal values may be shown once. Read-outs that look alike come from different tables or passages of the source.

Key:
[1] = cited from earlier work; for Protein in oligomeric state: ref [30]
Text: It has been shown, for example, that up ...

peptide substrates = tested on: peptide substrates; parameters: method as in PMID 10876246; conditions: two different peptide substrates; ref [3]; cited from earlier work
[2] = nESI-MS relative populations of oligomeric forms; format: physicochemical, human; conditions: 6-15 µM protein, 150 mM ammonium acetate, pH 7.4, estimated error 5% (SD of 3-4 independent experiments)
Experimental: Prior to MS analysis, samples were buffer exchanged into 150 mM ammonium acetate, pH 7.4, using Micro Bio-spin 6 columns (Bio-Rad, Digilab Division, Cambridge, MA, USA). For all the experiments protein concentrations ranging from 6 to 18 µM were used. In the case of the substrate binding experiments, proteins were analyzed in the presence of a 1: 1 molar ratio of the NR peptide; this substrate concentration, lower than in the SEC experiments, was chosen to ensure adequate resolution of the various charge state series, which is critical for unambiguous assignment of substrate-bound states. Due to suppression effects during nESI ionization, a relatively limited set of molar ratios could be investigated by in this way.
nESI-MS spectra were obtained according to a previously published protocol on an orthogonal time-of-flight mass spectrometer with a Z-spray source (LCT, Waters, Manchester, UK) in positive ion mode using the following parameters: capillary voltage, 1500 V; sample cone voltage, 120 V (unless otherwise specified); extraction cone voltage, 1V; and ion transfer stage pressure, 8.8 mbar. Spectra were calibrated externally using a 33 mg/ml solution of cesium iodide. Data were acquired and processed with MassLynx software (Waters, Manchester, UK), and are shown with minimal smoothing and without background subtraction. The relative abundances of the different oligomeric states were estimated from the intensities of the most abundant charge states for each construct and are expressed as a percentage of the total intensity.

[3] = Analytical SEC relative populations of oligomeric forms; format: physicochemical, human; conditions: Superdex 75, 4 °C; for Dimer population / Monomer population / Total oligomer population: 50 mM Tris pH 7.4, 150 mM KCl
Experimental: Analytical SEC was performed at 4 °C using a Superdex 75 10/300 GL column (GE Healthcare LifeSciences, Little Chalfont, U.K.), which had previously been calibrated using a mixture of standard proteins (Gel Filtration LMW Calibration Kit; GE Healthcare LifeSciences, Little Chalfont, U.K.). Typically, samples of the various constructs contained 70 µM of protein in 50 mM Tris buffer at pH 7.4, with 150 mM KCl, 5 mM MgCl2 and were incubated for 15 min (unless otherwise specified) at room temperature before being loaded onto the column for analysis. To evaluate the reversibility of the oligomerization process, the different elution peaks obtained for each protein variant were subsequently analyzed after concentrating the different fractions using AmiconUltra-0.5, Ultracel-3 Membrane, 3 kDa (Millipore, Bedford, MA, USA). A similar analysis was also performed at 6 µM concentration for all the protein variants to allow for a direct comparison between the results obtained by SEC and MS experiments.
The influence of substrate binding on the oligomerization properties of all the variants was examined by using the well-characterized Hsp70 substrate, the NR peptide (NRLLLTG, Genemed Synthesis Inc., San Antonio, TX, USA). A 14-fold excess of the peptide was added in each case to a fresh protein sample, incubated for 1 h at room temperature, unless otherwise specified, and then loaded onto the Superdex 75 10/300 GL column for analysis. The relative quantities of the different protein species were estimated by analysing the chromatographic profile using a Gaussian function for each elution peak (OriginPro 8, Originlab, Northampton, MA, USA) and measuring the relative area under each peak.

[4] = Secondary structure content from far-UV CD; format: physicochemical, human; conditions: K2D software; 20 µM protein, 7 mM Tris pH 7.4, 170 mM KCl, 5 mM MgCl2; 25 °C
Experimental: Far-UV CD spectra for all protein variants were recorded using a Jasco J-810 spectropolarimeter equipped with a Peltier holder, using a 0.1 cm path length cuvette. Typically, samples contained 20 µM protein in 7 mM Tris buffer at pH 7.4, containing 170 mM KCl and 5 mM MgCl2. The far-UV CD spectra of all the variants in their native, thermally denatured and refolded states were recorded from 198 to 250 nm, and the spectrum of the buffer was systematically subtracted from the spectra of all protein samples. The secondary structure content was estimated from the far-UV CD spectrum for each protein variant using K2D software.

[5] = Thermal denaturation monitored by far-UV CD; format: physicochemical, human
Experimental: Protein structural stability was analyzed by monitoring the CD signal at 222 nm upon thermal denaturation. Thermal runs were performed from 5 to 90 °C at a rate of 1 °C. min^-1. Data points were acquired every 0.1 °C with a response time of 2 s and a bandwidth of […]. After thermal denaturation, each protein sample was cooled to the starting temperature, and a second denaturation curve recorded in order to analyse the degree of reversibility of the denaturation process. Analysis of the thermal unfolding curves was performed assuming a three-state unfolding model.

∆LSBD641 = test: Fluorescence competition assay of dansylated and non-dansylated NR peptide; format: binding, human
Experimental: Fluorescence competition assay. Samples containing 50 μM ∆LSBD641 and 2 μM dansylated-NR peptide (D-NR) in Tris 50 mM, pH 7.4, 150 mM KCl, 5 mM MgCl2 were incubated in the presence of different concentrations of non-dansylated NR peptide (ND-NR; 0, 50 and 200 μM) for 1h at room temperature and the dansyl fluorescence emission spectrum of each sample was recorded from 400 to 630 nm after excitation at 330 nm. The intensity at the maximum emission wavelength of three different samples for which ten spectra were recorded was averaged, and the fraction of bound D-NR peptide was then determined experimentally from the reduction in the fluorescence signal in relation to the reference sample without ND-NR peptide for which the fraction of bound D-NR peptide is known (83% of the D-NR peptide is bound in this conditions according to the affinity measured by fluorescence titration; see Figure […]
The fraction of bound D-NR peptide was theoretically calculated for each sample according to a competitive model where the two ligands bind to the same substrate-binding pocket in the chaperone and assuming different values for the affinity of the ND-NR peptide for ∆LSBD641 […]
fluorescence titration was 8 ± 2 μM).
From the mass balance of the total protein concentration (PT) in a two-ligands competitive model and substituting the concentration of each complex (PL1 and PL2, corresponding to the complex with D-NR and ND-NR peptide, respectively) by the expression obtained from the definition of the different dissociation constants, a third-order polynomial expression (A·P3 + B·P2 + C·P + D = 0) of the free concentration of protein (P) is obtained, where the coefficients of the different terms are:
(also on this page, place not known: dansylated - m M excitati on -NR sig nal ND -NR D -NR D -NR D -NR substrate -binding ND -NR K d D -NR ( PT) two -ligands substitut ing ( PL1 D -NR ND -NR third -order (A· P3 D ( P) Tdd TdTddTdTddTTTdd PKKD PKPkKLKLKKCPLLKKBA 21 211221212121 ;;;1 −= −−++=−+++==) […]
(1 picture or pasted object on this page, not shown here)

[6] = 70 µM protein, 5 mM MgCl2, 15 min at room temperature, estimated error 3.5% (SD of 3-4 independent experiments)
[7] = 6-15 µM protein, 5 mM MgCl2, estimated error 3.5% (SD of 3-4 independent experiments)

Substance | Monomer population [2] [%] | Trimer population [2] [%] | Dimer population [3, 6] [%] | Monomer population [3, 6] [%] | Dimer population [3, 7] [%] | Monomer population [3, 7] [%] | Total oligomer population [3, 7] [%] | Random-coil content estimated from far-UV CD [4] [%] | α-helix content estimated from far-UV CD [4] [%] | β-sheet content estimated from far-UV CD [4] [%] | also measured
BiP/Grp78: endoplasmic reticulum resident Hsp70 chaperone |  |  |  |  |  |  |  |  |  |  | Molecules existing as oligomers ([1]; in mammalian cells, ref [29]): 40-50%; Molecules existing as oligomers ([1]; in vitro, ca. 5 µM protein, ref [28]): 40-50%
DnaK 2-538: DnaK mutant protein lacking the C-terminal 100 residues, i.e. helices C-E and part of helix B |  |  |  |  |  |  |  |  |  |  | Association rate constants vs wild type DnaK (peptide substrates): unaffected; Dissociation rate constants vs wild type DnaK (peptide substrates): considerable increase
DnaK: bacterial Hsp70 homologue |  |  |  |  |  |  |  |  |  |  | Protein in oligomeric state ([1]; 0.5 mg/ml (ca. 7 µM)): approximately 20%; Protein in oligomeric state ([1]; 16 mg/ml (ca. 230 µM)): 70%
FL-Hsp70: full-length human Hsp70 1A, GenBank ID NP005336, recombinant N-hexa-His-tagged | 98 | 0 | 7 | 93 | 1 | 99 | 1 | 32 | 45 | 23 | Total oligomer population [2]: 2%; Oligomeric species ([3]; 220 µM protein, 50 mM Tris pH 7.4): 35%
SBD556: truncated human Hsp70 (384-556), lacks helices C, D and E and C-terminal disordered region; L542Y mutation | 82 | 2 | 7 | 93 | 3 | 97 | 3 | 54 | 21 | 25 | Dimer population [2]: 16%; Total oligomer population [3, 6]: 7%; ∆Hm, 1st transition ([5]; CD 222 nm, 20 µM protein, 7 mM Tris pH 7.4, 170 mM KCl, 5 mM MgCl2, three-state fit (C-term two-state), SE of fit): 63.9 ± 1.9 kcal/mol; ∆Hm, 2nd transition ([5]; CD 222 nm, 20 µM protein, 7 mM Tris pH 7.4, 170 mM KCl, 5 mM MgCl2, three-state fit, SE of fit): 85.4 ± 2.6 kcal/mol; Tm, 1st transition ([5]; CD 222 nm, 5 to 90 °C at 1 °C/min, 20 µM protein, 7 mM Tris pH 7.4, 170 mM KCl, 5 mM MgCl2, three-state fit (C-term two-state), SE of fit): 46.8 ± 0.1 °C; Tm, 2nd transition ([5]; CD 222 nm, 5 to 90 °C at 1 °C/min, 20 µM protein, 7 mM Tris pH 7.4, 170 mM KCl, 5 mM MgCl2, three-state fit, SE of fit): 64.5 ± 0.1 °C and 64.5 ± 0.2 °C; Reversibility of thermal unfolding ([5]; far-UV CD, second denaturation curve after cooling): fully reversible
dansylated NR peptide: NR peptide N-terminally labeled with dansyl fluorophore |  |  |  |  |  |  |  |  |  |  | Fraction of bound dansylated NR peptide, ∆LSBD641:ND-NR 1:1, experimentally determined (∆LSBD641; 50 μM ∆LSBD641, 2 μM D-NR, 50 μM ND-NR, Tris 50 mM pH 7.4, 150 mM KCl, 5 mM MgCl2, 1 h room temperature, average of three samples): 0.62 ± 0.1; Fraction of bound dansylated NR peptide, ∆LSBD641:ND-NR 1:4, experimentally determined (∆LSBD641; 50 μM ∆LSBD641, 2 μM D-NR, 200 μM ND-NR, Tris 50 mM pH 7.4, 150 mM KCl, 5 mM MgCl2, 1 h room temperature, average of three samples): 0.35 ± 0.1; D-NR peptide bound (∆LSBD641; 50 μM ∆LSBD641, 2 μM D-NR, no ND-NR, according to affinity from fluorescence titration): 83%; Affinity of dansylated vs non-dansylated NR peptide (∆LSBD641; fluorescence competition assay): essentially the same affinity
